Data taken from patent publication US6521594 (LA JOLLA CANCER RESEARCH FOUNDATION, dated 2003).
Starred links: 1 amine or outer side, 2 acyl side, 3 side chain; linkers in the order of their positions; H or OH if unused. Positions of bridges follow the written chain, without caps; N, C: chain ends. Non-standard residues stand in square brackets, D forms with d. Primed or numbered codes have the meaning given here. No end group written: not given here. *: point of attachment. Tyr(OMe)″ = O-methyl-tyrosine (Y-OMe, TyrOMe, O-Me-Tyr), COc1ccc(C[C@H](N[*:1])C(=O)[*:2])cc1; Tyr(Me)(4) = O-methyl-tyrosine (O-Me-Tyr, TyrMe), COc1ccc(C[C@H](N[*:1])C(=O)[*:2])cc1; Tyr(OMe) = O-methyl-tyrosine (O-Me-Tyr, Y-OMe), COc1ccc(C[C@H](N[*:1])C(=O)[*:2])cc1; Tyr(Me) = O-methyl-tyrosine (Y-OMe, O-Me-Tyr), COc1ccc(C[C@H](N[*:1])C(=O)[*:2])cc1; Tyr(Me)(3) = O-methyl-tyrosine (O-Me-Tyr), COc1ccc(C[C@H](N[*:1])C(=O)[*:2])cc1; Tyr(nHex) = O-n-hexyl-tyrosine, CCCCCCOc1ccc(C[C@H](N[*:1])C(=O)[*:2])cc1; Tyr(OMe)(3) = O-methyl-tyrosine, COc1ccc(C[C@H](N[*:1])C(=O)[*:2])cc1; Cys(β,β-pentamethylene) = O=C([C@@H](N[*:1])C1(S[*:3])CCCCC1)[*:2]; O‑Me‑Tyr = O-methyl-tyrosine, COc1ccc(C[C@H](N[*:1])C(=O)[*:2])cc1; Phe(4-NO2) = N[C@@H](Cc1ccc([N+](=O)[O-])cc1)C(=O)O; Tyr(3,5-I2) = N[C@@H](Cc1cc(I)c(O)c(I)c1)C(=O)O; Cyclohexylacetyl(1-SH) = O=C(CC1(S)CCCCC1)*; Phe(4-I) = N[C@@H](Cc1ccc(I)cc1)C(=O)O; 1Nal = N[C@@H](Cc1cccc2ccccc12)C(=O)O; Cha = N[C@@H](CC1CCCCC1)C(=O)O; dPen = CC(C)(S)[C@@H](N)C(=O)O; Pen = CC(C)(S)[C@H](N)C(=O)O; code O = not defined here; Orn = NCCC[C@H](N)C(=O)O

Assays:
[1] = biological target: T1, Platelet glycoprotein IIb/IIIa (human, UniProt P08514 32-1039; P05106 27-788); assay: cell-based or functional assay
[2] = biological target: T2, Vitronectin receptor (human, UniProt P06756 31-1048; P05106 27-788); assay: competition, ELISA or liposome assay, vitronectin coated
T2 construct: mature; also called Vn-R; VnR
T2 sequence (P06756 31-1048, chain 1 of 2): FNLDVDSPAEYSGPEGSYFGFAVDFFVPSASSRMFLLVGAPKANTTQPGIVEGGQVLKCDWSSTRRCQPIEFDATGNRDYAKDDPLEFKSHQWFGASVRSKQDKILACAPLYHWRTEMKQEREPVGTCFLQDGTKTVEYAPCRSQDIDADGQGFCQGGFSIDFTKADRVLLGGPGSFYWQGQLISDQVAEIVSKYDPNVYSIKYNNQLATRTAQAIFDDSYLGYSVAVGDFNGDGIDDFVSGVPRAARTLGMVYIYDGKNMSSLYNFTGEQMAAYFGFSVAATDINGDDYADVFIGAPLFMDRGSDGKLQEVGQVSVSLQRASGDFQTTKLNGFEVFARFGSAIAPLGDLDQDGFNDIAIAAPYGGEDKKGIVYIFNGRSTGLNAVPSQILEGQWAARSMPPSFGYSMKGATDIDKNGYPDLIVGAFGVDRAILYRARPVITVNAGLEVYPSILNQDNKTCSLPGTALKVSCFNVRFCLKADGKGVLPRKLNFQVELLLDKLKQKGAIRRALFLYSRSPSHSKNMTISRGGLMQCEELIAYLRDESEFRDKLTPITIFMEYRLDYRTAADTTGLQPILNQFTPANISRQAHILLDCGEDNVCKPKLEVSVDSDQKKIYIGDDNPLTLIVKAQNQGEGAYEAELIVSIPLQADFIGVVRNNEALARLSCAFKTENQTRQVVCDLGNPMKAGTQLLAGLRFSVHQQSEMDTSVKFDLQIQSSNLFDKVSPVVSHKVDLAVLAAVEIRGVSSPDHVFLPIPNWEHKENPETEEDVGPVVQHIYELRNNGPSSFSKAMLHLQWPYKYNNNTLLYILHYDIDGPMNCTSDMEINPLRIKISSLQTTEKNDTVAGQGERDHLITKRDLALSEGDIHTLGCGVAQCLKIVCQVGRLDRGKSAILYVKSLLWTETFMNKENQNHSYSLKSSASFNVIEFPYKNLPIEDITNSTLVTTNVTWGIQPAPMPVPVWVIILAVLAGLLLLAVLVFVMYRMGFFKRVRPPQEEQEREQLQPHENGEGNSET
T2 sequence (P05106 27-788, chain 2 of 2): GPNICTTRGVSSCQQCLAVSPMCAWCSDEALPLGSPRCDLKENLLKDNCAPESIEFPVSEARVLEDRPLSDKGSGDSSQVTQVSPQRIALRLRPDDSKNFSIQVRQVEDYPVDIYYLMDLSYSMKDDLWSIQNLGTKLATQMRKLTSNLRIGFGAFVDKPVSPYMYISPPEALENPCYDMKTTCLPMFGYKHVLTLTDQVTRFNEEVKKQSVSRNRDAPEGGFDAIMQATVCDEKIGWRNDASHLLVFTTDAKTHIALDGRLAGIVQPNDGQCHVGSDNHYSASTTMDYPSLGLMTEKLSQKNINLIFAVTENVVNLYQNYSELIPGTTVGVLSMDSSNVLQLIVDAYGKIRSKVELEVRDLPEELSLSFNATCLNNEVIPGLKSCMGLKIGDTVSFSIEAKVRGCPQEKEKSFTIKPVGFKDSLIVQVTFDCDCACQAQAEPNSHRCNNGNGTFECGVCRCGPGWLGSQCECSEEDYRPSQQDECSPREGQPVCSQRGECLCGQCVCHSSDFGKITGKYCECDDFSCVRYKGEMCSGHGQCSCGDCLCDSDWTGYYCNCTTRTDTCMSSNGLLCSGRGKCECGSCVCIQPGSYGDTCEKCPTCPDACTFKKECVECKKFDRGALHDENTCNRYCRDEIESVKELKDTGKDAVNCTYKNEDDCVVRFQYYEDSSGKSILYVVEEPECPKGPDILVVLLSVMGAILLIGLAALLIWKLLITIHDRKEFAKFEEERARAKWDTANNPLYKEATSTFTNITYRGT

[3] = biological target: T1, Platelet glycoprotein IIb/IIIa; assay: competition, ELISA or liposome assay
[4] = biological target: T3, Fibronectin receptor (human, UniProt P08648 42-1049; P05556 21-798); assay: competitive ELISA, fibronectin coated
T3 construct: mature; Purified on a 110 kd fibronectin fragment column; also called Fn-R; FnR
T3 sequence (P08648 42-1049, chain 1 of 2): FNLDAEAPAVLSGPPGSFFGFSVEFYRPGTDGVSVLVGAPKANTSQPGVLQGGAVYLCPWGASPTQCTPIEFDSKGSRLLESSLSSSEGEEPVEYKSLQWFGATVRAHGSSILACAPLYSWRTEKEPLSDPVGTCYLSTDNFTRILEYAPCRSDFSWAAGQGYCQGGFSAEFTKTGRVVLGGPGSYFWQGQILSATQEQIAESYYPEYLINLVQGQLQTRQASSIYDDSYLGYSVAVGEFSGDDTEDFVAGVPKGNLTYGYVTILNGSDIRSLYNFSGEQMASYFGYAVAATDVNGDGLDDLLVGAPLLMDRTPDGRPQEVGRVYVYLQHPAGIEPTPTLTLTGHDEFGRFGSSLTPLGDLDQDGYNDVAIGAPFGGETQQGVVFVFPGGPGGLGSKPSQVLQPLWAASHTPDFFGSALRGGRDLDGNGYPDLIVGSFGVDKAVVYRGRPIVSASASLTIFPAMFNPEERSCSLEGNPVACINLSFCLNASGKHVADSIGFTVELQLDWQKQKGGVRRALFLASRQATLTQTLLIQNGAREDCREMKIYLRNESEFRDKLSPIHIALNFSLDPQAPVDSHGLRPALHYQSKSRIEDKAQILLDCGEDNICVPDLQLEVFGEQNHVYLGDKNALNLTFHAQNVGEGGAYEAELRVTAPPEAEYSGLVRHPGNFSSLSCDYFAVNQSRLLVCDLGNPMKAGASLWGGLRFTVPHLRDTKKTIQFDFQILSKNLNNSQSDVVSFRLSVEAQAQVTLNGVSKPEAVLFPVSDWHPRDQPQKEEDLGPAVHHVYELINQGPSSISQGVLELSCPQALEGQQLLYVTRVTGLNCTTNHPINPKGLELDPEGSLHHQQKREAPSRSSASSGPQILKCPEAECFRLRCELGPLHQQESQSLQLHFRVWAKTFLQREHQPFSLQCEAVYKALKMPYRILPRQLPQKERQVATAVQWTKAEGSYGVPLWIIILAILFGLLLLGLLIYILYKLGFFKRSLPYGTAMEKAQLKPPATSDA
T3 sequence (P05556 21-798, chain 2 of 2): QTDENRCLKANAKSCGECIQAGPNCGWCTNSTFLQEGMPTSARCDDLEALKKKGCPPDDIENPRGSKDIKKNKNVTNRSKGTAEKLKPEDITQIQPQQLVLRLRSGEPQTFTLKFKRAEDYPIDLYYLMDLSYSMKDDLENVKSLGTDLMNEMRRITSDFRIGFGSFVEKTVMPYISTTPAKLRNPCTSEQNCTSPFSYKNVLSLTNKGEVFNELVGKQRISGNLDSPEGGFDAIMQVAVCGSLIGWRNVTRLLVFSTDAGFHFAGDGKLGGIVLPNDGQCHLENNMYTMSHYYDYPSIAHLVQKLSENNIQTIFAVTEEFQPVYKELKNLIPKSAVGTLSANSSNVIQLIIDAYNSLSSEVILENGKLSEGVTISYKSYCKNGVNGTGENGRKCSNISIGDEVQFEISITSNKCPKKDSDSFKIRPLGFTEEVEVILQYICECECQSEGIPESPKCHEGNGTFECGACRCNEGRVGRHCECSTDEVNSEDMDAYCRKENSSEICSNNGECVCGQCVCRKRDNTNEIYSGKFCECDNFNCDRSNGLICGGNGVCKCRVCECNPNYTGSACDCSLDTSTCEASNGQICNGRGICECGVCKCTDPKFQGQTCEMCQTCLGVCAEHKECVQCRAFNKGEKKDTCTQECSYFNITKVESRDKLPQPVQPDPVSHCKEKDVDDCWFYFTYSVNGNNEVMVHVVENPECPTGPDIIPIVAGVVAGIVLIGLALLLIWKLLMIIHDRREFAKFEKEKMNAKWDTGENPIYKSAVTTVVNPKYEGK

Binder | IC50, ADP-Stimulated Aggregation [1] [µM] | IC50 [2] [µM] | further results
G[Pen]GHRGDTRCA (disulfide 2-10) [G(Pen)GHRGDTRCA] | 11.3 | – | IC50, Thrombin Stimulated Aggregation [1]: 17 µM
L[Pen]GHRGDLRCA (disulfide 2-10) [L(Pen)GHRGDLRCA] | 10.5 | – | –
[t‑butylAmino‑Pmp]GHRGDLRCA (disulfide 1-9; also: place of tert-butyl and chirality not given here) [(t-butylAmino-Pmp) GHRGDLRCA] | 130 | – | –
R[Orn]GHRGDLRDR [R(orn)GHRGDLRDR] | < 200 | – | –
R[Cys(β,β-pentamethylene)]GHRGDFRCR (disulfide 2-10 (inferred)) [R(Pmc)GHRGDFRCR] | 0.62 | – | –
R[Cys(β,β-pentamethylene)]GHRGDVRCR (disulfide 2-10; not fully specified; printed as R(Pmc)GHRGDVRCR) [R(Pmc)GHRGDVRCR] | 0.69 | 2 | –
R[Cys(β,β-pentamethylene)]GHRGDYRCR (disulfide 2-10) [R(Pmc)GHRGDYRCR] | 1 | – | –
R[Cys(β,β-pentamethylene)]GHRGDWRCR (disulfide 2-10; not fully specified; printed as R(am-Pmp)GHRGDWRCR-1) [R(am-Pmp)GHRGDWRCR-1] | – | – | IC50 [3]: 0.06 µM
XGHRGDLRXA (not fully specified; t-but-am-Pmp at 1; Pen at 9) [(t-but-am-Pmp)GHRGDLR(Pen)A] | 89 | – | –
R[Cys(β,β-pentamethylene)]RGD[Cha]CR (disulfide 2-7) [R(am-Pmp)RGD(Cha)CR] | < 200 | – | –
G[Pen]GRGDTPCA (disulfide 2-9) [G(Pen)GRGDTPCA] | 22.3 | – | –
G[Pen]LRGDSRCA (disulfide 2-9) [G(Pen)LRGDSRCA] | 41 | – | IC50, Thrombin Stimulated Aggregation [1]: 49 µM
G[Pen]LRGDTPCA (disulfide 2-9) [G(Pen)LRGDTPCA] | 86 | – | –
R[Cys(β,β-pentamethylene)]GRGDTPCA (disulfide 2-9) [R(AminoPmp)GRGDTPCA] | – | – | IC50 [4]: 0.03 µM
R[Pen]GRGDTPCR (disulfide 2-9) [R(Pen)GRGDTPCR] | – | 0.01 | IC50, Thrombin Stimulated Aggregation [1]: 2 µM
R[Pen]GRGDWPCR (disulfide 2-9) [R(Pen)GRGDWPCR] | – | – | IC50, Thrombin Stimulated Aggregation [1]: 0.53 µM
R[Cys(β,β-pentamethylene)]GRGDWPCR (disulfide 2-9) [R(am-Pmp)GRGDWPCR] | – | – | IC50 [4]: 0.05 µM
FRGDSPDG | 110 | 0.04 | IC50 [4]: 2.4 µM
LRGDSPDG | 150 | 0.2 | –
YRGDSPDG | – | 0.08 | –
G[Pen]FRGDSFCA (disulfide 2-9) [G(Pen)FRGDSFCA] | < 200 | 0.05 | –
G[Pen]GRGDRPCA (disulfide 2-9) [G(Pen)GRGDRPCA] | 22.3 | – | –
G[Pen]GRGDSFCA (disulfide 2-9) [G(Pen)GRGDSFCA] | 115 | 0.02 | –

Binder | IC50, ADP-Stimulated Aggregation [1] [µM] | IC50 [2] [µM] | further results
G[Pen]LRGDSPCA (disulfide 2-9) [G(Pen)LRGDSPCA] | 415 | – | IC50, Thrombin Stimulated Aggregation [1]: 308 µM
K[Pen]GRGDTPCA (disulfide 2-9, 21 numbers stand for 20 rows, so none is assigned) [K(Pen)GRGDTPCA] | – | – | IC50 [4]: 0.03 µM
R[Pen]GRGDTPCA (disulfide 2-9) [R(Pen)GRGDTPCA] | 7 | 0.03 | IC50 [4]: 0.08 µM
G[Pen]YRGDSPCA (disulfide 2-9) [G(Pen)YRGDSPCA] | 47 | – | –
R[Pen]GRGDSRCA (disulfide 2-9) [R(Pen)GRGDSRCA] | 12 | – | IC50, Thrombin Stimulated Aggregation [1]: 12 µM
R[Pen]GRGDLRCA (disulfide 2-9) [R(Pen)GRGDLRCA] | 16 | – | IC50, Thrombin Stimulated Aggregation [1]: 13 µM
R[Pen]GHRGDTRCR (disulfide 2-10) [R(Pen)GHRGDTRCR] | 8.8 | – | –
R[Cys(β,β-pentamethylene)]GHRGD[Tyr(Me)][code O]CR (disulfide 2-10; reading uncertain; also: printed as R(Pmc)GHRGD(O-Me-Tyr)OCR) [R(Pmc)GHRGD(O-Me-Tyr)OCR] | – | – | IC50 [3]: 0.007 µM
D[Cys(β,β-pentamethylene)]GHRGD[Tyr(OMe)″]RCR (disulfide 2-10) [D(Pmc)GHRGD(O-Me-Tyr)RCR] | – | – | IC50 [4]: 10 µM
G[Cys(β,β-pentamethylene)]GHRGD[Tyr(Me)(3)]RCR (disulfide 2-10) [G(Pmc)GHRGD(O-Me-Tyr)RCR] | – | 10 | IC50 [4]: 10 µM
R[Cys(β,β-pentamethylene)]GHRGD[Tyr(Me)]KCR (disulfide 2-10) [R(Pmc)GHRGD(O-Me-Tyr)KCR] | – | 10 | IC50 [4]: 10 µM
R[Cys(β,β-pentamethylene)]GHRGD[Phe(4-I)]KCR (disulfide 2-10) [R(Pmc)GHRGD(p-iodo-Phe)KCR] | – | 8 | –
R[Cys(β,β-pentamethylene)]GHRGD[Phe(4-NO2)]KCR (disulfide 2-10) [R(Pmc)GHRGD(p-nitro-Phe)KCR] | – | 10 | –
T[Cys(β,β-pentamethylene)]GHRGD[Tyr(OMe)(3)]RCR (disulfide 2-10; not fully specified; printed as T(Pmc)GHRGD(O-Me-Tyr)RCR) [T(Pmc)GHRGD(O-Me-Tyr)RCR] | – | 10 | IC50 [4]: 10 µM
Ac-[Cys(β,β-pentamethylene)]GHRGD[Tyr(OMe)]RC-NH2 (disulfide 1-9; SMILES COc1ccc(C[C@@H]2NC(=O)[C@H](CC(=O)O)NC(=O)CNC(=O)[C@H](CCCNC(=N)N)NC(=O)[C@H](Cc3c[nH]cn3)NC(=O)CNC(=O)[C@@H](NC(C)=O)C3(CCCCC3)SSC[C@@H](C(N)=O)NC(=O)[C@H](CCCNC(=N)N)NC2=O)cc1) [Ac(Pmc)GHRGD(O-Me-Tyr)RC-NH2] | – | 10 | IC50 [3]: 0.4 µM
R[Cys(β,β-pentamethylene)]GHRGD[Tyr(Me)(4)]RCR (disulfide 2-10; also: am-Pmp2 from racemic mixture) [R(am-Pmp)GHRGD(TyrMe)RCR] | – | 1 | –
R[dPen]NPRGD[Tyr(OMe)(3)]RCR (disulfide 2-10) [R(dPen)NPRGD(O-Me-Tyr)RCR] | – | – | IC50 [4]: 10 µM
R[Pen]GHRGD[1Nal]RCR (disulfide 2-10) [R(Pen)GHRGD(1-Nal)RCR] | – | – | IC50 [4]: 10 µM
[Cyclohexylacetyl(1-SH)]GHRGDLRCA (disulfide 1-9) [(Pmp)GHRGDLRCA] | – | 10 | –
R[Cys(β,β-pentamethylene)]GHRGDLRCR (disulfide 2-10; not fully specified; printed as R(am-Pmp)GHRGDLRCR-1) [R(am-Pmp)GHRGDLRCR-1] | – | – | IC50 [3]: 0.4 µM
R[Cys(β,β-pentamethylene)]GHRGD[Tyr(nHex)]RCR (disulfide 2-10) [R(Pmc)GHRGD(O-n-hexyl-Tyr)RCR] | – | – | IC50 [4]: 2 µM
R[Cys(β,β-pentamethylene)]GHRGD[Tyr(3,5-I2)]RCR (disulfide 2-10) [R(Pmc)GHRGD(3,5-diiodo-Tyr)RCR] | – | 0.9 | –
R[Cys(β,β-pentamethylene)]GHRGD[O‑Me‑Tyr]RCR (disulfide 2-10, also called R(Pmc)GHRGD(Y-OMe)RCR; 5O) [R(Pmc)GHRGD(O-Me-Tyr)RCR] | – | – | IC50 [3]: 0.06 µM
